Test results reported in patent publication US20150329594A1 (University of California, published 2015).
“And” between values parts separate entries of the source, which are not always exact repeats. Equal entries are not always repeated. Where two headings read alike, the source gives them in different places. Bridge positions count the residues as written; N and C are the ends. Square brackets hold non-standard residues; d marks the D form. Trp(1-Me) = Cn1cc(C[C@H](N)C(=O)O)c2ccccc21

Columns and labels:
Assay in all cases: cell-based or functional assay
[1] = biological target: T1, human complement protein C3 (human, UniProt P01024 23-1663)
[2] = biological target: T1, human complement protein C3; remark: listed apart in the source
[3] = biological target: T1, human complement protein C3; remark: listed apart in the source
[4] = biological target: T1, human complement protein C3; remark: listed apart in the source

T1 sequence (P01024 23-1663 limits assumed): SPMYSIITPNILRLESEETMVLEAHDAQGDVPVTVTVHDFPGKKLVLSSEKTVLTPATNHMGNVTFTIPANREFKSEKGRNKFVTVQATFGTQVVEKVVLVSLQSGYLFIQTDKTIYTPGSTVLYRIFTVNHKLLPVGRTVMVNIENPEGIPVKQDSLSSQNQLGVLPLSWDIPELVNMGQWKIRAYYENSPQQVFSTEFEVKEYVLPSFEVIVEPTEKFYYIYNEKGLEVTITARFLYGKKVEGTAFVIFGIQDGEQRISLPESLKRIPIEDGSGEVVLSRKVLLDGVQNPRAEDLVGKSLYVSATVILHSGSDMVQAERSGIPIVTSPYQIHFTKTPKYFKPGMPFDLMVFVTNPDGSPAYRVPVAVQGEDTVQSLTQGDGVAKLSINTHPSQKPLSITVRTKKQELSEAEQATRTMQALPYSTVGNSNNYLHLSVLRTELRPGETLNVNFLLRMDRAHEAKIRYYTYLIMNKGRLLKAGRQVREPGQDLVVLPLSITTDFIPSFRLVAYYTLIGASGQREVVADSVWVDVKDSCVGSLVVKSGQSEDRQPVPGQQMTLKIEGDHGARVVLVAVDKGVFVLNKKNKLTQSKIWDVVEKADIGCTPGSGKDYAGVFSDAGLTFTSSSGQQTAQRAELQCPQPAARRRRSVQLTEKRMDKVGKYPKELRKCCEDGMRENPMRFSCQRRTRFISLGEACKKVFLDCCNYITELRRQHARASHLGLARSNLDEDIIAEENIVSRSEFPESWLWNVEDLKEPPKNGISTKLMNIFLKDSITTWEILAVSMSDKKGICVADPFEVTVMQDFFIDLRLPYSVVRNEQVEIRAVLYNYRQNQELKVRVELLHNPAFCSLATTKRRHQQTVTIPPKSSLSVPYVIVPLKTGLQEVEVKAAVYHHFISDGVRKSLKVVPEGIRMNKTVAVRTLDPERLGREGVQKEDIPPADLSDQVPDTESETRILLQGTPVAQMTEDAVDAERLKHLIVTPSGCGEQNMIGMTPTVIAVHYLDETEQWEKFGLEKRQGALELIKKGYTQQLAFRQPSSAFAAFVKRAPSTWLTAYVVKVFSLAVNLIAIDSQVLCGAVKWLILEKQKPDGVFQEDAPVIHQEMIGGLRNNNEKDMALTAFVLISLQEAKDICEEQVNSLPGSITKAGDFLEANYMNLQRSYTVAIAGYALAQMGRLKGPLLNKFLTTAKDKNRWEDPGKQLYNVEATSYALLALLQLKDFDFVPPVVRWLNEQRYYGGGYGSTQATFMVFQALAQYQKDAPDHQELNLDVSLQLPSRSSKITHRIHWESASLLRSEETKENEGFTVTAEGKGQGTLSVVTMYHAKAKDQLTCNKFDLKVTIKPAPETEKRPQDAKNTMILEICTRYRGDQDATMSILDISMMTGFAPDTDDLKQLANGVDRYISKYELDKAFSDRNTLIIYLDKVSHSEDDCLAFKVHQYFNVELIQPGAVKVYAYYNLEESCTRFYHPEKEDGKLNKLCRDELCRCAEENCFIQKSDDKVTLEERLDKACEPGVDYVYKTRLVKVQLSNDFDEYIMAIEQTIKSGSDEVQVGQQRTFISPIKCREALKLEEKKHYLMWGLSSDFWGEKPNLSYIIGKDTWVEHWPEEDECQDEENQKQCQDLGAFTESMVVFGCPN

Row | Binder | IC50 (assay not named in Table 7; preliminary C3b ELISA by paragraph 235) [1] | C3b ELISA IC50 [2] | C5b-9 ELISA IC50 [2] | Hemolytic assay IC50 [2] | RPE cell assay medium C5b-9 ELISA, % of positive control (peptide at 1 µM) [3] | RPE cell-based assay, confocal imaging of deposit-associated C5b-9, % of positive control (peptide at 1 µM) [3] | C3b ELISA IC50 [4] | C5b-9 ELISA IC50 [4] | Lysis IC50 [4]
1 | Ac-RCV[Trp(1-Me)]QDWGAHRCT-NH2 (disulfide 2-12; SMILES CC(=O)N[C@@H](CCCNC(=N)N)C(=O)N[C@H]1CSSC[C@@H](C(=O)N[C@H](C(N)=O)[C@@H](C)O)NC(=O)[C@H](CCCNC(=N)N)NC(=O)[C@H](Cc2c[nH]cn2)NC(=O)[C@H](C)NC(=O)CNC(=O)[C@H](Cc2c[nH]c3ccccc23)NC(=O)[C@H](CC(=O)O)NC(=O)[C@H](CCC(N)=O)NC(=O)[C@H](Cc2cn(C)c3ccccc23)NC(=O)[C@H](C(C)C)NC1=O) [Peptide III, Ac-RCVme…-NH2] | 0.3 mM | 1.42 µM | 1.07 µM | 2.25 µM | 50 % of positive control | 20 % of positive control | 1.4 µM and 0.5 µM | 1.1 µM and 0.6 µM | –
2 | Ac-RSRCV[Trp(1-Me)]QDWGAHRCT-NH2 (disulfide 4-14; SMILES CC(=O)N[C@@H](CCCNC(=N)N)C(=O)N[C@@H](CO)C(=O)N[C@@H](CCCNC(=N)N)C(=O)N[C@H]1CSSC[C@@H](C(=O)N[C@H](C(N)=O)[C@@H](C)O)NC(=O)[C@H](CCCNC(=N)N)NC(=O)[C@H](Cc2c[nH]cn2)NC(=O)[C@H](C)NC(=O)CNC(=O)[C@H](Cc2c[nH]c3ccccc23)NC(=O)[C@H](CC(=O)O)NC(=O)[C@H](CCC(N)=O)NC(=O)[C@H](Cc2cn(C)c3ccccc23)NC(=O)[C@H](C(C)C)NC1=O) [Peptide VII, Ac-RS-RCVme…-NH2] | 0.47 mM | – | – | – | – | – | – | – | –
3 | RSICVXQDWGAHRCT (N-terminal acetyl; C-terminal amide; disulfide bridge Cys2-Cys12; meW (Trp methylated at the indole amide position) at position 4 (filing's numbering from -1; 6th residue of the chain)) [Peptide VI, Ac-RS-ICVme…-NH2] | 0.62 mM | 1.74 µM | 1.13 µM | 2.23 µM | 44.6 % of positive control | 14.8 % of positive control | 1.7 µM and 0.6 µM | 1.1 µM and 0.6 µM | –
4 | Ac-RCVWQDWGAHRCT-NH2 (disulfide 2-12; SMILES CC(=O)N[C@@H](CCCNC(=N)N)C(=O)N[C@H]1CSSC[C@@H](C(=O)N[C@H](C(N)=O)[C@@H](C)O)NC(=O)[C@H](CCCNC(=N)N)NC(=O)[C@H](Cc2c[nH]cn2)NC(=O)[C@H](C)NC(=O)CNC(=O)[C@H](Cc2c[nH]c3ccccc23)NC(=O)[C@H](CC(=O)O)NC(=O)[C@H](CCC(N)=O)NC(=O)[C@H](Cc2c[nH]c3ccccc23)NC(=O)[C@H](C(C)C)NC1=O) [Peptide I, Ac-RCVWQDWGAHRCT-NH2] | 0.25 mM | 2.58 µM | 2.02 µM | 3.33 µM | 61.4 % of positive control | 55.3 % of positive control | 2.6 µM and 1.1 µM | 2 µM and 1 µM | 3.3 µM and 1.2 µM
5 | Ac-SSICVWQDWGAHRCT-NH2 (disulfide 4-14; SMILES CC[C@H](C)[C@H](NC(=O)[C@H](CO)NC(=O)[C@H](CO)NC(C)=O)C(=O)N[C@H]1CSSC[C@@H](C(=O)N[C@H](C(N)=O)[C@@H](C)O)NC(=O)[C@H](CCCNC(=N)N)NC(=O)[C@H](Cc2c[nH]cn2)NC(=O)[C@H](C)NC(=O)CNC(=O)[C@H](Cc2c[nH]c3ccccc23)NC(=O)[C@H](CC(=O)O)NC(=O)[C@H](CCC(N)=O)NC(=O)[C@H](Cc2c[nH]c3ccccc23)NC(=O)[C@H](C(C)C)NC1=O) [Peptide IV, Ac-SS-ICVWQDWGAHRCT-NH2] | 0.33 mM | – | – | – | – | – | – | – | –
6 | Ac-WWRCVWQDWGAHRCT-NH2 (disulfide 4-14; SMILES CC(=O)N[C@@H](Cc1c[nH]c2ccccc12)C(=O)N[C@@H](Cc1c[nH]c2ccccc12)C(=O)N[C@@H](CCCNC(=N)N)C(=O)N[C@H]1CSSC[C@@H](C(=O)N[C@H](C(N)=O)[C@@H](C)O)NC(=O)[C@H](CCCNC(=N)N)NC(=O)[C@H](Cc2c[nH]cn2)NC(=O)[C@H](C)NC(=O)CNC(=O)[C@H](Cc2c[nH]c3ccccc23)NC(=O)[C@H](CC(=O)O)NC(=O)[C@H](CCC(N)=O)NC(=O)[C@H](Cc2c[nH]c3ccccc23)NC(=O)[C@H](C(C)C)NC1=O) [Peptide V, Ac-WW-RCVWQDWGAHRCT-NH2] | 0.46 mM | – | – | – | – | – | – | – | –
